Experimental data: publication PMC10638403

Biological target: full-length E. coli ClpX (E. coli) (UniProt P0A6H1)

FITC-casein
rate of ClpP degradation of FITC-casein (50 µM, 30 °C) supported by full-length ∆NPS ClpX against wild-type ClpX (against ~10-fold for ∆NPS ClpX^∆N over ClpX^∆N): 2 fold
